What all share (test): cryo-EM structure; endogenous mouse Mediator immunopurified from CH12 nuclear extract through 3×FLAG-MED19 or 3×FLAG-MED25; eluted in 50 mM HEPES pH 7.9, 100 mM KCl, 5% glycerol, 1 mM EDTA, 0.005% NP-40; map at 4.0 Å overall, focused refinement of the MED1 and knob/hook ends (6-10 Å)
What all share (conditions): both partners purified

Assay [1] has as its target T1, MED1 (mouse (Mus musculus; endogenous in CH12), UniProt Q925J9 1-1575).
T1 construct: MED1, Mus musculus, endogenous Middle module subunit of Mediator; only a partial model of the folded N-terminal portion was built; Partial model only; this part of the map is at about 6-8 Å; also called Mediator subunit MED1; source: endogenous, CH12 mouse B lymphoma nuclear extract; immunopurified as part of Mediator (FLAG M2 agarose, FLAG peptide elution)

Assay [2] addresses T2, MED4 (mouse (Mus musculus; endogenous in CH12), UniProt Q9CQA5 1-270).
T2 construct: MED4, Mus musculus, endogenous Middle module subunit of Mediator; source: endogenous, CH12 mouse B lymphoma nuclear extract; immunopurified as part of Mediator (FLAG M2 agarose, FLAG peptide elution)
T2 sequence (looked up): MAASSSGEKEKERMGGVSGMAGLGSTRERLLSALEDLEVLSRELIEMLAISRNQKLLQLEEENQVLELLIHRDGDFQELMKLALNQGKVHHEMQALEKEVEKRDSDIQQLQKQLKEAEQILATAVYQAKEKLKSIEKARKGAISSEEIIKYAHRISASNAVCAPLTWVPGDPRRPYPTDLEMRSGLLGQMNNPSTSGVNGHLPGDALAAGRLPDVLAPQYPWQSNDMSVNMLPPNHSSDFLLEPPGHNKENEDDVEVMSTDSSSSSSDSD

Assay [3] addresses T3, MED17 (mouse (Mus musculus; endogenous in CH12), UniProt Q8VCD5 1-649).
T3 construct: MED17, Mus musculus, endogenous Head module scaffold subunit of Mediator; source: endogenous, CH12 mouse B lymphoma nuclear extract; immunopurified as part of Mediator (FLAG M2 agarose, FLAG peptide elution)
T3 sequence (looked up): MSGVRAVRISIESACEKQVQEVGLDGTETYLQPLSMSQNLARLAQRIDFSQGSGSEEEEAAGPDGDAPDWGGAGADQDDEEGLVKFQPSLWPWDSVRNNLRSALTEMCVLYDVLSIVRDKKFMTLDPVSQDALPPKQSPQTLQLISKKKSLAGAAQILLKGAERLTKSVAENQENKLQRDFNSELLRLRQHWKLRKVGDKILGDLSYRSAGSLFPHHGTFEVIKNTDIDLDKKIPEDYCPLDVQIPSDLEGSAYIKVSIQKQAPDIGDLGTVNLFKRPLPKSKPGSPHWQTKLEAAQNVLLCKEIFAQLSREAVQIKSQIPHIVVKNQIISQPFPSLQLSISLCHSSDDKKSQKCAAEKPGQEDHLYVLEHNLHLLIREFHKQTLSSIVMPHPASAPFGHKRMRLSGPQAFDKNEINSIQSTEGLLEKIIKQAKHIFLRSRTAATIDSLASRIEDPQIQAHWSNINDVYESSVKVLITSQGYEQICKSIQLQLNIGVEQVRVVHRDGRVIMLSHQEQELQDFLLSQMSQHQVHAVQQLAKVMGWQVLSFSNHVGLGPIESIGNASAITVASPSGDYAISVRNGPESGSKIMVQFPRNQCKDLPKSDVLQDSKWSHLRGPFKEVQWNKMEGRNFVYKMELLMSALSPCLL

The target of assay [4] is T4, MED20 (mouse (Mus musculus; endogenous in CH12), UniProt Q9R0X0 1-212).
T4 construct: MED20, Mus musculus, endogenous Head module subunit of Mediator; source: endogenous, CH12 mouse B lymphoma nuclear extract; immunopurified as part of Mediator (FLAG M2 agarose, FLAG peptide elution)
T4 sequence (looked up): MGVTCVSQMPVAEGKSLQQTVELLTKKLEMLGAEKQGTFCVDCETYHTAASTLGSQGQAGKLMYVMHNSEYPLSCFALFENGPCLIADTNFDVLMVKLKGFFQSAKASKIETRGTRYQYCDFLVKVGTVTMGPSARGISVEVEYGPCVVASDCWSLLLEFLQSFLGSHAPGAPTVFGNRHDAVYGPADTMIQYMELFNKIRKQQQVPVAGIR

Assay [5] concerns the target T5, MED27 (mouse (Mus musculus; endogenous in CH12), UniProt Q9DB40 1-311).
T5 construct: MED27, Mus musculus, endogenous upper Tail subunit of Mediator; source: endogenous, CH12 mouse B lymphoma nuclear extract; immunopurified as part of Mediator (FLAG M2 agarose, FLAG peptide elution)
T5 sequence (looked up): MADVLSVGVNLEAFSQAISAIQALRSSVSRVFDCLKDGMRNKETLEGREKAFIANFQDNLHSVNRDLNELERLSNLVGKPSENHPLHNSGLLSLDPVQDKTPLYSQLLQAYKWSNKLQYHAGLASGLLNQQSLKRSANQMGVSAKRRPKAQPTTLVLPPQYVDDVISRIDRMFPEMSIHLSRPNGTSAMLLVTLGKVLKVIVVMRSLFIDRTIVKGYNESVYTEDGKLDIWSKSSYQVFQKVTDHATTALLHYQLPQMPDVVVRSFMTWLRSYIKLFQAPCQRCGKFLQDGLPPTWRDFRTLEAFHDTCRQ

Assay [6] concerns the target T6, MED7 (mouse (Mus musculus; endogenous in CH12), UniProt Q9CZB6 1-233).
T6 construct: MED7, Mus musculus, endogenous Middle module subunit of Mediator; source: endogenous, CH12 mouse B lymphoma nuclear extract; immunopurified as part of Mediator (FLAG M2 agarose, FLAG peptide elution)
T6 sequence (looked up): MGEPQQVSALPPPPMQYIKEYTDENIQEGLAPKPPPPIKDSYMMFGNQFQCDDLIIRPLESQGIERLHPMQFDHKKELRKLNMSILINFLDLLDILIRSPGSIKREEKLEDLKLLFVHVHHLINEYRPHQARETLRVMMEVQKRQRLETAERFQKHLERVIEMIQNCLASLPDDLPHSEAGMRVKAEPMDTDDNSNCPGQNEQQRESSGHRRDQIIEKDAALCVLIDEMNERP

T1 sequence (Q925J9 whole entry): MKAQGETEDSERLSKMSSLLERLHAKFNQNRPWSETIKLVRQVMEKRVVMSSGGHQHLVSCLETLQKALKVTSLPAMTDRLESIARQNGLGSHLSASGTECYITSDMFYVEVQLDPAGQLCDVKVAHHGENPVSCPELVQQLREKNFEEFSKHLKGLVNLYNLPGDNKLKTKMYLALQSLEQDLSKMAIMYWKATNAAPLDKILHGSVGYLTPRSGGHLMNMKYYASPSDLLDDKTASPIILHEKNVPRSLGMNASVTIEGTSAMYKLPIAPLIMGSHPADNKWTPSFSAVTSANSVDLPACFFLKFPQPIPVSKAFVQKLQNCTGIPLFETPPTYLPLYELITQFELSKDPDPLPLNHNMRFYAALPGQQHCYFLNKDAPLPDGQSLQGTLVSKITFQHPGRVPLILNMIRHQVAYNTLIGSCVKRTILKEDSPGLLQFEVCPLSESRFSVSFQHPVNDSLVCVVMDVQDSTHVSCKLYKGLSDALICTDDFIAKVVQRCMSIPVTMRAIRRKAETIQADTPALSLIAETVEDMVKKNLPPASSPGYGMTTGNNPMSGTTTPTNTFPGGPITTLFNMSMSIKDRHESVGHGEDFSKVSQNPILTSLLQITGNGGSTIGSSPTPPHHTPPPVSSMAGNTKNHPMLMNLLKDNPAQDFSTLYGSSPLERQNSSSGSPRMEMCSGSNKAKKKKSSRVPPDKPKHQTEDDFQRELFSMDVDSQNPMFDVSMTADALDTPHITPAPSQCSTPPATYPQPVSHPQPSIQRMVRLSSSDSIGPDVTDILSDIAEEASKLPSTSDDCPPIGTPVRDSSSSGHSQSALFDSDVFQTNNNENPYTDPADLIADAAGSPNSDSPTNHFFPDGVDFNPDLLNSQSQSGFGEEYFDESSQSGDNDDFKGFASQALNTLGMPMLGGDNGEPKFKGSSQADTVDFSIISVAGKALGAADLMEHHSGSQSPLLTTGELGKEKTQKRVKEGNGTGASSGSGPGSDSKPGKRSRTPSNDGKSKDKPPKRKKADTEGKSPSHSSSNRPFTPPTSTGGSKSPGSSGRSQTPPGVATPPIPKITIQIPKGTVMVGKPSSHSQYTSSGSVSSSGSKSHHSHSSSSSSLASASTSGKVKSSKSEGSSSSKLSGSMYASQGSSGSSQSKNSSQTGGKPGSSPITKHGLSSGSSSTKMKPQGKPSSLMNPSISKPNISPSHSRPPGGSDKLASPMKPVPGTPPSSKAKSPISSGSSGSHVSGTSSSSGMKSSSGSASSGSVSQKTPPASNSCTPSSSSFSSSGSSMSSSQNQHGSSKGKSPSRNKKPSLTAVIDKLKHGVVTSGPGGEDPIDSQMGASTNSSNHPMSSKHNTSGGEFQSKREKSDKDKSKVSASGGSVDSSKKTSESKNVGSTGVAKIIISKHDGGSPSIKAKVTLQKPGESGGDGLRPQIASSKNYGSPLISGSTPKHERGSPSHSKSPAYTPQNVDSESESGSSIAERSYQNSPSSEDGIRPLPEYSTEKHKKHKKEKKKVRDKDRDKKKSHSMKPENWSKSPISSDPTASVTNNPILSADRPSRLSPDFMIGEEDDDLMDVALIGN

B1: MED9 (natural protein, mouse (Mus musculus; endogenous in CH12), UniProt Q8VCS6 1-142, looked up)
chain: MASSGVAGGRQAEDTLQPPPELLPESKPPPPPQPLPVAALPPPAAPRPQSPAGAKEENYSFLPLVHNVIKCMDKDSPDLHQDLNALKTKFQELRKLIGTMPGIHVSPEQQQQQLHSLREQVRTKNELLQKYKSLCMFEIPKD
notes: MED9, Mus musculus, endogenous Middle module subunit of Mediator; source: endogenous, CH12 mouse B lymphoma nuclear extract; immunopurified as part of Mediator (FLAG M2 agarose, FLAG peptide elution)
Consider B1, for which the binding result in assay [1] and in assay [2] was “binds” each time.

B2: MED18 (natural protein, mouse (Mus musculus; endogenous in CH12), UniProt Q9CZ82 1-208, looked up)
chain: MEAPPVTMMPVTGGTINMMEYLLQGSVLDHSLESLIHRLRGLCDNMEPETFLDHEMVFLLKGQQASPFVLRARRSMDRAGAPWHLRYLGQPEMGDKNRHALVRNCVDIATSENLTDFLMEMGFRMDHEFVAKGHLFRKGIMKVVVYKIFRILVPGNTDSTEALSLSYLVELSVVAPAGQDMVSDDMRNFAEQLKPLVHLEKIDPKRLM
notes: MED18, Mus musculus, endogenous Head module subunit of Mediator; source: endogenous, CH12 mouse B lymphoma nuclear extract; immunopurified as part of Mediator (FLAG M2 agarose, FLAG peptide elution)
Turning to B2, the binding result in assay [3], in assay [4] and in assay [5] was “binds” in each case.

B3: MED21 (natural protein, mouse (Mus musculus; endogenous in CH12), UniProt Q9CQ39 1-144, looked up)
chain: MADRLTQLQDAVNSLADQFCNAIGVLQQCGPPASFSNIQTAINKDQPANPTEEYAQLFAALIARTAKDIDVLIDSLPSEESTAALQAASLYKLEEENHEAATCLEDVVYRGDMLLEKIQSALADIAQSQLKTRSVTHSHSLPDS
notes: MED21, Mus musculus, endogenous Middle module subunit of Mediator; source: endogenous, CH12 mouse B lymphoma nuclear extract; immunopurified as part of Mediator (FLAG M2 agarose, FLAG peptide elution)
For B3, in assay [6], the binding result was “binds”.

Values taken from PMC7921410, “Structure of mammalian Mediator complex reveals Tail module architecture and interaction with a conserved core” (Nature Communications, 2021).
